Results taken from US7144731B2, “SCF antibody compositions and methods of using the same” (Amgen Inc., priority 1989, dated 2006).

Legend:
normal human bone marrow = test: Human CFU-GM assay; assay type: cell-based
[1] = test system: murine mast cell line, MC/9; test: MC/9 ^3H-thymidine uptake assay; assay type: cell-based
Description: Another useful biological activity of both naturally-derived and recombinant rat SCF is the ability to cause the proliferation of the […] murine mast cell line, MC/9 (ATCC CRL 8306). MC/9 cells are cultured with a source of […] according to the ATCC CRL 8306 protocol. The medium used in the bioassay is RPMI 1640, 4% fetal bovine serum, 5×10^−5M 2-mercaptoethanol, and 1× glutamine-pen-strep. The MC/9 cells proliferate in response to SCF without the requirement for other growth factors. This proliferation is measured by first culturing the cells for 24 h without growth factors, plating 5000 cells in each well of 96 well plates with test sample for 48 h, pulsing for 4 h with 0.5 uCi ^3H-thymidine (specific activity 20 Ci/mmol), harvesting the solution onto glass fiber filters, and then measuring specifically-bound radioactivity. This assay was used in the purification of mammalian cell derived rat SCF after the ACA 54 gel filtration step, section C2 of this Example. Typically, SCF caused a 4–10 fold increase in CPM over background.

W/W^v mice = test: Bone marrow transplantation model in W/W^v mice; assay type: in vivo, mouse
Description: A. Rat SCF in Bone Marrow Transplanation COS-1 cells were transfected with V19.8 SCF^1-162 in a large scale experiment (T175 cm^2 flasks instead of 60 mm dishes) as described in Example 4. Approximately 270 ml of supernatant was harvested. This supernatant was chromatographed on wheat germ agglutinin-agarose and S-Sepharose essentially as described in Example 1. The recombinant SCF was evaluated in a bone marrow transplantation model based on murine W/W^v genetics. The W/W^v mouse has a stem cell defect which among other features results in a macrocytic anemia (large red cells) and allows for the transplantation of bone marrow from normal animals without the need for irradiation of the recipient animals [Russel, et al., Science, 144, 844–846 (1964)). […]
In the following example, each group contained six age matched mice. […] The blood profile of the recipient animals is followed at different times post transplantation and engraftment of the donor marrow is determined by the shift of the peripheral blood cells from recipient to donor phenotype. The conversion from recipient to donor phenotype is detected by monitoring the forward scatter profile (FASCAN, Becton Dickenson) of the red blood cells. […] An independent qualitative indicator of engraftment is the hemoglobin type detected by hemoglobin electrophoresis of the recipient blood [Wong, et al., Mol. and Cell. […]

human bone marrow = test: Human bone marrow colony assay; assay type: cell-based; conditions: COS-1 CM, 20 U/ml EPO, 14 days, colonies ≥0.2 mm
Description: The cDNA of human SCF corresponding to amino acids 1–162 obtained by PCR reactions outlined in Example 3D, was expressed in COS-1 cells as described for the rat SCF in Example 4. COS-1 supernatants were assayed on human bone marrow as well as in the murine HPP-CFC and MC/9 assays. […] The culture conditions of the assay were as follows: human bone marrow from healthy volunteers was centrifuged over Ficoll-Hypaque gradients (Pharmacia) and cultured in 2.1% methyl cellulose, 30% fetal calf serum, 6×10^−5 M 2-mercaptoethanol, 2 mM glutamine, ISCOVE'S medium (GIBCO), 20 U/ml EPO, and 1×10^5 cells/ml for 14 days in a humidified atmosphere containing 7% O2, 10% CO2, and 83% N2. Only those colonies of 0.2 mm in size or larger are indicated.
Recombinant human SCF was tested in agar colony assays on human bone marrow in combination with other growth factors as described above.

KG-1 = KG-1 soft agar cloning assay; assay type: cell-based, human; conditions: COS-1 supernatant, 25 μl assayed; triplicate
Description: Another activity of recombinant human SCF is the ability to cause proliferation in soft agar of the human acute myelogenous leukemia (AML) cell line, KG-1 (ATCC CCL 246). COS-1 supernatants from transfected cells were tested in a KG-1 agar cloning assay [Koeffler et al., Science, 200, 1153–1154 (1978)] essentially as described except cells were plated at 3000/ml.

[2] = test system: 5-FU treated mouse bone marrow cells; test: HPP-CFC assay; assay type: cell-based; conditions: COS-1 supernatant
Text: There are a variety of biological activities which can be attributed to the natural mammalian rat SCF as well as the recombinant rat SCF protein. One such activity is its effect on early hematopoietic cells. This activity can be measured in a High Proliferative Potential Colony Forming Cell (HPP-CFC) assay [Zsebo, et al., supra (1988)]. To investigate the effects of factors on early hematopoietic cells, the HPP-CFC assay system utilizes mouse bone marrow derived from animals 2 days after 5-fluorouracil (5-FU) treatment. […] The rat SCF is plated in the presence of CSF-1 or IL-6 in semi-solid agar cultures. The agar cultures contain McCoys complete medium (GIBCO), 20% fetal bovine serum, 0.3% agar, and 2×10^5 bone marrow cells/ml. The McCoys complete medium contains the following components: 1× McCoys medium supplemented with 0.1 mM pyruvate, 0.24× essential amino acids, 0.24× non-essential amino acids, 0.027% sodium bicarbonate, 0.24× vitamins, 0.72 mM glutamine, 25 μg/ml L-serine, and 12 μg/ml L-asparagine. The bone marrow cells are obtained from Balb/c mice injected i.v. with 150 mg/kg 5-FU. The femurs are harvested 2 days post 5-FU treatment of the mice and bone marrow is flushed out. The red blood cells are lysed with red blood cell lysing reagent (Becton Dickenson) prior to plating. Test substances are plated with the above mixture in 30 mm dishes. Fourteen days later the colonies (>1 mm in diameter) which contain thousands of cells are scored. This assay was used throughout the purification of natural mammalian cell-derived rat SCF.

irradiated dogs = test: Canine DLA-identical littermate marrow transplantation; assay type: in vivo, dog; conditions: 920 cGy TBI + marrow
Text: SCF alone enhances hematopoietic recovery following bone marrow transplantation. A variety of experimental variables have been tested in a canine model of bone marrow transplantation, Schuening et al., 76 636–640. In one set of experiments for the present invention, dogs received either G-CSF or SCF after 920 cGy of total body irradiation and 4×10^8 mononuclear marrow cells per kilogram from a DLA-identical littermate. The hematologic recovery, as measured by day of neutrophil recovery to 500 or 1000/mm^3, is accelerated when either SCF or G-CSF is administered compared to control animals that received no growth factor (Table 21). Recovery was 2–6 days earlier in animals that received SCF than it was in those that received no growth factor. As noted above, combinations of appropriate growth factors with SCF will accelerate and enhance the response to those growth factors following hematopoietic transplantation.

B1: V19.8 rat SCF^1-162: recombinant rat SCF truncated at amino acid 162, supernatant of COS-1 or CHO cells transfected with V19.8 (protein)
chain: MKKTQTWIITCIYLQLLLFNPLVKTQEICRNPVTDNVKDITKLVANLPNDYMITLNYVAGMDVLPSHCWLRDMVTHLSVSLTTLLDKFSNISEGLSNYSIIDKLGKIVDDLVACMEENAPKNVKESLKKPETRNFTPEEFFSIFNRSIDAFKDFMVASDTSD
synergistic activity in CFU-GM assay (normal human bone marrow): synergized with human GM-CSF, human IL-3, and human CSF-1
Colony #/100,000 cells (±SEM) (normal human bone marrow; average of triplicate cultures, SCF = COS-1 supernatant 4 days after transfection): 0
cpm ([1]; COS-1 supernatant, 3 μl CM assayed): 9,638 cpm
cpm ([1]; COS-1 supernatant, 6 μl CM assayed): 11,482 cpm
cpm ([1]; COS-1 supernatant, 12 μl CM assayed): 11,322 cpm
cpm ([1]; COS-1 supernatant, 25 μl CM assayed): 11,648 cpm
cpm ([1]; stable CHO cell supernatant, volume assayed 1.5): 7,160 cpm
cpm ([1]; stable CHO cell supernatant, volume assayed 3): 14,714 cpm
cpm ([1]; stable CHO cell supernatant, volume assayed 6): 30,657 cpm
cpm ([1]; stable CHO cell supernatant, volume assayed 12): 34,973 cpm
cpm ([1]; stable CHO cell supernatant, volume assayed 25): 33,926 cpm
time to conversion to donor phenotype (W/W^v mice; SCF pre-treated group (600 U/ml, 37° C., 20 min)): ≤ 29 days post-transplantation
engraftment of donor marrow vs untreated control (W/W^v mice; cells pre-treated with 600 U/ml or recipients ~400 U/day sub-Q for 3 days): engrafted faster
Colony #/100,000 cells ± SD (human bone marrow; 50 μl assayed): 10
Colony #/100,000 cells ± SD (human bone marrow; 100 μl assayed): 13 ± 1
Colony #/3000 Cells ± SD (KG-1): 6 ± 1
Colony #/200,000 cells ([2]; 3 μl CM assayed): 8
Colony #/200,000 cells ([2]; 6 μl CM assayed): 30
Colony #/200,000 cells ([2]; 12 μl CM assayed): >50
Colony #/200,000 cells ([2]; 25 μl CM assayed): >50
Colony #/200,000 cells ([2]; 50 μl CM assayed): >50
Colony #/200,000 cells ([2]; 100 μl CM assayed): >50

B2: rcG-CSF: recombinant canine G-CSF (protein, UniProt P35834 1-175, looked up)
Granulocyte …: MAPLGPTGPLPQSFLLKCLEQMRKVQADGTALQETLCATHQLCHPEELVLLGHALGIPQPPLSSCSSQALQLMGCLRQLHSGLFLYQGLLQALAGISPELAPTLDTLQLDTTDFAINIWQQMEDLGMAPAVPPTQGTMPAFTSAFQRRAGGVLVASNLQSFLELAYRALRHFAKP
Recovery of ANC > 1000/mm^3 (irradiated dogs; 10 days treatment following transplant): Day 8
Recovery of ANC > 500 mm^3 (irradiated dogs; 10 days treatment following transplant (rcSCF 200, rcG-CSF 10 μg/kg/day SC)): Day 7
